From patent publication US8440430, “Modified dicer polypeptide and methods of use thereof” (The Regents of the University of California)

T1: hWalker human Dicer (K70A) (Homo sapiens, UniProt Q9UPY3 SEQ:1-1922)
T1 chain: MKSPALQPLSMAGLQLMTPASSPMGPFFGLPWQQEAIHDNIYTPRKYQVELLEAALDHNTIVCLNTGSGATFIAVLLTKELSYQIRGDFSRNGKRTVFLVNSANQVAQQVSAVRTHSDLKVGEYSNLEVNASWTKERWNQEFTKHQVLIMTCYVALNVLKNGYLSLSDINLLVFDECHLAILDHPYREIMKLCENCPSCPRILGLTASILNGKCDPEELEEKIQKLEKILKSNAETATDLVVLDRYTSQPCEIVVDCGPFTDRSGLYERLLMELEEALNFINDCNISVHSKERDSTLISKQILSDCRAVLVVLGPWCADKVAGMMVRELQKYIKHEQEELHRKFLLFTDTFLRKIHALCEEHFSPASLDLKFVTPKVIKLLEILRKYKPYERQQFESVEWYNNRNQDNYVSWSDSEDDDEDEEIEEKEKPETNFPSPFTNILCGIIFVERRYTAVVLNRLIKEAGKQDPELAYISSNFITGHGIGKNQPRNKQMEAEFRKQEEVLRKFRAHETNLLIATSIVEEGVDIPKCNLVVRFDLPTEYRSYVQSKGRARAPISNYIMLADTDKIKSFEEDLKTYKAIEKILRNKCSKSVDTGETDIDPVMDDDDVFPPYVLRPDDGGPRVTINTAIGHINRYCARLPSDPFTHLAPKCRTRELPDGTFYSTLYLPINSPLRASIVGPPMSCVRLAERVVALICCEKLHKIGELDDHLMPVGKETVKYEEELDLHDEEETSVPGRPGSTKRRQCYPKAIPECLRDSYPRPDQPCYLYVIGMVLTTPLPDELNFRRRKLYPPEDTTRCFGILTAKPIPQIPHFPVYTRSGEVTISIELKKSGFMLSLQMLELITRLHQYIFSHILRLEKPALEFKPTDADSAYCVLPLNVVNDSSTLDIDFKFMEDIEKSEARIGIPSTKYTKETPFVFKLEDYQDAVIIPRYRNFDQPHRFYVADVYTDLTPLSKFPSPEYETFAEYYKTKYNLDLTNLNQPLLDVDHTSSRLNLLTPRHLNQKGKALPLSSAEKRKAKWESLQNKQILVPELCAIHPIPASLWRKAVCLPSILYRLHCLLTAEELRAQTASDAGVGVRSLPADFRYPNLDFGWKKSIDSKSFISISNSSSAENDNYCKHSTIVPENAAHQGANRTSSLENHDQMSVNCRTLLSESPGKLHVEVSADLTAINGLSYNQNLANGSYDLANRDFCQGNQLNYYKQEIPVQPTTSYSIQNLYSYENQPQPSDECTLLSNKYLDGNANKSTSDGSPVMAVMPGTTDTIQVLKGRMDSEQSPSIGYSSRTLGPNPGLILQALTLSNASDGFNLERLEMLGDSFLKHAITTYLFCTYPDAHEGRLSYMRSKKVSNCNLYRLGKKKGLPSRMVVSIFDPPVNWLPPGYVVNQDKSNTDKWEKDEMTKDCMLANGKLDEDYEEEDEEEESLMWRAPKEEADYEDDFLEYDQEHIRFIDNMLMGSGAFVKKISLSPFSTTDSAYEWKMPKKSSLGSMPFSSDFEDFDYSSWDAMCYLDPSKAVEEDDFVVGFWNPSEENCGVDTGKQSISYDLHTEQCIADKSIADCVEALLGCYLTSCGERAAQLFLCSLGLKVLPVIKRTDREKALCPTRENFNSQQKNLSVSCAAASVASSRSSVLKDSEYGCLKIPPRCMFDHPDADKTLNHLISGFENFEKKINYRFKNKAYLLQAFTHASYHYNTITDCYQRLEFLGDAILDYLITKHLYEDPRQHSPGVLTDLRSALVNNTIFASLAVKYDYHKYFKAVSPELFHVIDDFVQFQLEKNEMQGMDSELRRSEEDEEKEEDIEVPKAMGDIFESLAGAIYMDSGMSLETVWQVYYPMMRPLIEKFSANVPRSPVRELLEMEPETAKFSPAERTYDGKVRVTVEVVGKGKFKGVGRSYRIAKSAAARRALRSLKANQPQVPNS

B1: pre-hlet-7 hairpin RNA (ssRNA)
RNA: UGAGGUAGUAGGUUGUAUAGUUUUAGGGUCACACCCACCACUGGGAGAUAACUAUACAAUCUACUGUCUUACC
B2: 37ab duplex RNA (dsRNA)
RNA 1: UGAGGUAGUAGGUUGUAUAGUUUGAAAGUUCACGAUU
RNA 2: UCGUGAACUUUCAAACUAUACAACCUACUACCUCAUU

Experiments:
[1] = biological target: wild-type human Dicer (flhDcr) (Homo sapiens, UniProt Q9UPY3 SEQ:1-1922); experiment: filter; 5 mM EDTA, no free Mg2+, 25 mM NaCl, pH 7.5, room temperature; settings: tags: N-terminal His6 removed by site-specific protease, baculovirus/Sf9
Procedure: A serial dilution of proteins were incubated in a buffer containing 20 mM Tris-Cl (pH 7.5), 25 mM NaCl, 5 mM EDTA, 1 mM dithiothreitol (DTT), 1% glycerol and ~0.5-1 nM (1500 c.p.m.) of ^32P-labeled duplex RNA substrate (one strand was labeled) at room temperature for 60 min […] After this incubation, 25 µl of each reaction were used for dot-blotting, which was conducted in a dot-blot apparatus equipped with 3 membranes of Tuffryn, Protran and Nytran (from top to bottom). After dried, the bound (on Protran) or free (on Nytran) RNAs were detected and quantified with Phosphoimager (GE Healthcare). Percentage of bound RNAs was calculated by 100 multiplied by the ratio of radioactivity (volumes) detected on the Protran membrane over the total input volumes (radioactivity). The bound RNAs (%) (Y-axle) were plotted against protein concentrations (X-axle). K_d was determined by global fitting to the equation of kobsd = (kmax ×[Dicer])(K_{1/2} + [Dicer])^-1, here $kobsd$ is the observed rate constant at a particular protein concentration, $kmax$ is the maximal rate constant with saturating protein, and K_{1/2} (or K_d) is the protein concentration that provides half the maximal rate. Curve fitting was conducted with KleidaGraph (Synery Software).
RNA. […] These values are similar to those measured previously (Provost et al, 2002; Vermeulen et al, 2005).

[2] = biological target: T1, hWalker human Dicer (K70A); experiment: filter; within three-fold of full-length; 5 mM EDTA; exact Kd only in figure; settings: tags: N-terminal His6 removed by site-specific protease, baculovirus/Sf9
Procedure: After dried, the bound (on Protran) or free (on Nytran) RNAs were detected and quantified with Phosphoimager (GE Healthcare). Percentage of bound RNAs was calculated by 100 multiplied by the ratio of radioactivity (volumes) detected on the Protran membrane over the total input volumes (radioactivity). The bound RNAs (%) (Y-axle) were plotted against protein concentrations (X-axle). K_d was determined by global fitting to the equation of kobsd = (kmax ×[Dicer])(K_{1/2} + [Dicer])^-1, here $kobsd$ is the observed rate constant at a particular protein concentration, $kmax$ is the maximal rate constant with saturating protein, and K_{1/2} (or K_d) is the protein concentration that provides half the maximal rate. Curve fitting was conducted with KleidaGraph (Synery Software).
RNA. […] These values are similar to those measured previously (Provost et al, 2002; Vermeulen et al, 2005). […] The protein lacking both the DExD/H-box domain and the dsRBD (2DD) bound ~3-4 fold more weakly to either substrate relative to full-length Dicer (FIG. 3A-C). It is possible that this severely truncated protein is generally destabilized, or that the DExD/H-box domain plays a small but measurable role in substrate binding.

[3] = label: 5'-32P on one strand, perfect duplex with 2-nt 3' overhangs on both ends

Binder | Kd ([1]; label: 5'-32P, hairpin) | Kd relative to full-length Dicer (fold) ([2]; label: 5'-32P, hairpin) | Kd [1, 3] | Kd relative to full-length Dicer (fold) [2, 3]
B1 | 30 nM | ≤ 3 fold of full-length Kd (30 nM) | – | –
B2 | – | – | 75 nM | ≤ 3 fold of full-length Kd (75 nM)
